{"source": "paper PMC8355326", "assay_in_all_cases": "cryo-EM structure", "key": {"[1]": {"target": "BG505 SOSIP MD39 (HIV (BG505 genotype, clade A))"}, "[2]": {"target": "BG505 SOSIP.v5.2 N241/N289 (HIV (BG505 genotype, clade A))"}, "[3]": {"target": "BG505 SOSIP.v5.2(7S) N241/N289 (HIV (BG505 genotype, clade A))"}}, "data": [{"substance": "BG505 SOSIP MD39 (domain or fragment)", "values": [{"measurement": "stoichiometry N", "setting": "[1]", "value": 3}]}, {"substance": "BG505 SOSIP.v5.2 N241/N289 (domain or fragment)", "values": [{"measurement": "stoichiometry N", "setting": "[2]", "value": 3}]}, {"substance": "BG505 SOSIP.v5.2(7S) N241/N289 (domain or fragment)", "values": [{"measurement": "stoichiometry N", "setting": "[3]", "value": 3}]}]}
